Results: paper PMC7661507, “Polyelectrolyte interactions enable rapid association and dissociation in high-affinity disordered protein complexes” (Nature Communications, 2020)

Experiments:
Conditions in all cases: both partners purified
[1] = molecular target: T1, unlabeled recombinant wild-type human histone H1.0 (human, UniProt P07305 1-194); test: single-molecule FRET of freely diffusing molecules; 50 pM donor/acceptor-labeled ProTα titrated with unlabeled H1; fraction bound from transfer efficiency histograms; 10 mM TBS, 0.1 mM EDTA, 200 mM ionic strength (KCl), 140 mM β-mercaptoethanol, 0.01% Tween 20
T1 construct: linker histone H1.0, human, H1F0 gene, UniProt P07305, wild type; also called linker histone H1.0; unlabeled H1; source: bought: New England Biolabs (cat. # M2501S)

[2] = molecular target: T1, unlabeled recombinant wild-type human …; test: single-molecule FRET of freely diffusing molecules, competition titration; 50 pM labeled ProTα and constant unlabeled H1 (10 nM; also 1 µM and 20 µM in Fig. 2), unlabeled ProTα varied; TBS, 200 mM ionic strength; coupled binding equilibria fit
[3] = molecular target: T1, unlabeled recombinant wild-type human …; test: single-molecule FRET of surface-immobilized molecules; biotinylated labeled ProTα immobilised on neutravidin/PEG surface, nanomolar unlabeled H1 in solution; degassed TBS in D2O, 200 mM ionic strength, oxygen scavenger; two-state hidden Markov model of photon time traces

B1: ProTα E56C/D110C labeled with Alexa Fluor 488/594 (natural protein)
chain: SDAAVDTSSEITTKDLKEKKEVVEEAENGRDAPANGNAENEENGEQEADNEVDEECEEGGEEEEEEEEGDGEEEDGDEDEEAESATGKRAAEDDEDDDVDTKKQKTDEDC
modifications: Alexa Fluor 488 maleimide and Alexa Fluor 594 maleimide on the cysteines at positions 56 and 110
Binder B1 has a Kd [1] of 0.73 nM.

B2: unlabeled ProTα (natural protein, human, UniProt P06454 1-111, looked up)
chain: MSDAAVDTSSEITTKDLKEKKEVVEEAENGRDAPANGNAENEENGEQEADNEVDEEEEEGGEEEEEEEEGDGEEEDGDEDEEAESATGKRAAEDDEDDDVDTKKQKTDEDD
notes: prothymosin α (ProTα), human, PTMA gene, UniProt P06454; The main text calls it only 'unlabeled ProTα'; also called prothymosin α; source: E. coli C41, purified (IMAC, tag cleavage, RP-HPLC)
With B2 the Kd [2] was 1.1 nM.

B3: Avi-Tag-ProTα E56C/D110C labeled with Cy3B/LD650 (natural protein)
chain: MSDAAVDTSSEITTKDLKEKKEVVEEAENGRDAPANGNAENEENGEQEADNEVDEECEEGGEEEEEEEEGDGEEEDGDEDEEAESATGKRAAEDDEDDDVDTKKQKTDEDC
modifications: biotin on Lys12 of the Avi-tag; Cy3B maleimide and LD650 maleimide on the cysteines at positions 56 and 110
For B3, the Kd [3] was 1.2 ± 0.1 nM, the koff [3] was 1.7 ± 0.1 s⁻¹ and the kon [3] was 1.45e+09 M⁻¹ s⁻¹.
